Data from publication PMC2700308.

Molecular target: gp120 prebound to sCD4 (HIV-1, subtype B, strain YU2 | human) (UniProt P35961)
Test: ITC

S22 peptide, 22 amino acid tyrosine-sulfated peptide corresponding to the CCR5 N-terminus (from UniProt P51681 1-22)
Kd: 2200 nM
